In article PMC2535662, “Identification of COUP-TFII Orphan Nuclear Receptor as a Retinoic Acid–Activated Receptor” (PLoS Biology, 2008):
Blank lines part the entries; values can stand above or below the molecule they belong to. Where no end group is shown, it is not given here.

How the values were obtained:
COUP-TFII = target: T1, COUP-TFII (Homo sapiens, UniProt P24468, C174S); experiment: AlphaScreen ligand-dependent coactivator peptide recruitment to purified LBD; also NGFI-A luciferase reporter in COS-7 cells; format: binding
T1 construct: gene NR2F2; LBD (residues 173–414 with C174S mutation), 6X His-GST fusion protein
T1 sequence (P24468 173-414 C174S): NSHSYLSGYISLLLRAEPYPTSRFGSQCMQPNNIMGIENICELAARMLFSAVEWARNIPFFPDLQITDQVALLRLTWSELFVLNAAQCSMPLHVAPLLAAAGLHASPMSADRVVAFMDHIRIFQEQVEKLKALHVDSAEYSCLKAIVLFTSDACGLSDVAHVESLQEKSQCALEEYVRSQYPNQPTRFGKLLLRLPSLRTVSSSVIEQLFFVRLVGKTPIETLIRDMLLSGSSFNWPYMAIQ

[1] = target: full-length COUP-TFII (mouse expression plasmid) (mouse) (UniProt P43135)
[2] = target: T2, 6X His-GST-COUP-TFII LBD fusion protein (human, UniProt P24468 173-414, C174S); experiment: AlphaScreen or HTRF; approximately 0.4 μM 6X His-GST receptor LBD and 0.1 μM biotinylated peptide, 20 μg/ml donor and acceptor beads; 50 mM MOPS, 50 mM NaF, 50 mM CHAPS, 0.1 mg/ml bovine serum albumin, pH 7.4; with 50 μM 9-cis-retinoic acid; conditions: both partners purified
T2 construct: The limits and C174S come from the protein preparation paragraph; also called receptor LBD; source: E. coli BL21 (DE3), purified as a 6X His-GST fusion protein; not shown: 6x Histidine, N-terminal, kept; GST, N-terminal, kept
T2 sequence (looked up): T1 sequence (P24468 173-414 C174S)

[3] = target: the molecule itself; experiment: crystal structure; ligand-free LBD, no cofactor peptide; hanging drops at 20 °C, well buffer 1.3 M or 1.5 M imidazole pH 5.6 and 1% Pluronic F68; space group C2, one LBD per asymmetric unit, symmetric dimer through crystal packing
[4] = target: COUP-TFII L364A/L365A double mutant (mouse) (UniProt P43135)

Molecule: CC1=C(/C=C/C(C)=C\C=C\C(C)=C\C(=O)O)C(C)(C)CCC1 [9cRA, 9-cis-retinoic acid]
- EC50 (COUP-TFII): 17 µM

Molecule: CC1=C(/C=C/C(C)=C/C=C/C(C)=C/C(=O)O)C(C)(C)CCC1 [ATRA, all-trans-retinoic acid]
- EC50 (COUP-TFII): 26 µM

B2: human COUP-TFII ligand-binding domain (residues 173–414, C174S), tag cleaved (domain or fragment, UniProt P24468 173-414, looked up)
chain: T1 sequence (P24468 173-414 C174S)
notes: Ligand-free; One LBD per asymmetric unit; The model lacks 13 residues between α1 and α3, 17 residues between α5 and α6, and the C-terminal seven residues; also called COUP-TFII LBD; apo-COUP-TFII; source: E. coli BL21 (DE3), purified (glutathione-sepharose, thrombin cleavage, Ni2+ chelating sepharose); not shown: 6x Histidine, N-terminal, cleaved; GST, N-terminal, cleaved
- binding result [3]: binds

B3: COUP-TFII L364A/L365A double mutant (natural protein)
chain: MAMVVSTWRDPQDEVPGSQGSQASQAPPVPGPPPGAPHTPQTPGQGGPASTPAQTAAGGQGGPGGPGSDKQQQQQHIECVVCGDKSSGKHYGQFTCEGCKSFFKRSVRRNLSYTCRANRNCPIDQHHRNQCQYCRLKKCLKVGMRREAVQRGRMPPTQPTHGQFALTNGDPLNCHSYLSGYISLLLRAEPYPTSRFGSQCMQPNNIMGIENICELAARMLFSAVEWARNIPFFPDLQITDQVALLRLTWSELFVLNAAQCSMPLHVAPLLAAAGLHASPMSADRVVAFMDHIRIFQEQVEKLKALHVDSAEYSCLKAIVLFTSDACGLSDVAHVESLQEKSQCALEEYVRSQYPNQPTRFGKLAARLPSLRTVSSSVIEQLFFVRLVGKTPIETLIRDMLLSGSSFNWPYMAIQ
- activation of the NGFI-A promoter luciferase reporter in COS-7 cells, relative to wild-type COUP-TFII [4]: 20%

The next lines start with the values.

- NGFI-A promoter luciferase reporter in COS-7 cells, COUP-TFII cotransfected with SRC-3, relative to COUP-TFII alone [1]: > 2 fold
Molecule: SRC-3 (wild type) (from UniProt Q9Y6Q9 1-1424) (natural protein)

- binding result [2]: binds
B1: biotinylated SRC3–1 peptide (peptide)
peptide: AENQRGPLESKGHKKLLQLLTSS
modifications: also: biotinylated, position not given here
